{
  "source": "patent US10155025B2",
  "about": "“Method for inhibiting or reducing transplant rejection by adminstration of interleukin-34” (INSERM (INSTITUT NATIONAL DE LA SANTÉ ET DE LA RECHERCHE …, priority 2014, dated 2018)",
  "test_system": "CD4+CD25- T cells stimulated with allogeneic pDCs",
  "assay": "MLR: suppression of CFSE-labelled CD4+CD25- T cell proliferation in response to allogeneic pDCs",
  "format": "cell-based, rat",
  "conditions": "dose dependent, 0.1 to 2 μg/ml, 6 days of culture",
  "procedure": "FIG. 3: Detection of IL-34 using an AAV-IL-34 and inhibition of allo-T cell responses. A. Supernatants of AAV-IL-34 or AAV-GFP-transduced cells were tested for suppression of CD4^+CD25^− T cell proliferation in response to allogeneic pDCs and analysed by flow cytometry for CFSE dilution after 5 days of culture. CD8^+ Tregs were used as positive control of suppression. n=3 in duplicates; Results are expressed as mean±SEM of normalized percentage of proliferation vs. proliferation in the absence of CD8^+ Tregs (100%). […] B. Serial dilution of sera from AAV-IL-34 or AAV-GFP-treated rats or naive animals were tested for suppression of CD4^+CD25^− T cell proliferation in response to allogeneic pDCs and analysed by flow cytometry for CFSE dilution after 5 days of culture. CD8^+ Tregs were used as positive control of suppression. n=3 in duplicates; Results are expressed as mean±SEM of normalized percentage of proliferation vs. proliferation in the absence of CD8^+ Tregs (100%). *, p<0.01; **, p<0.001; ***, p<0.0001 vs. sera from naïve animals.\nFIG. 6: M-CSF mediated dose dependent suppression of anti-donor effector CD4^÷CD25^− T cells responses. (A) FACS Aria-sorted CD8^+CD45RC^low Tregs from spleen of naive or 120 days old AdCD40Ig-treated recipients (n=6) were analysed for M-CSF mRNA expression by quantitative RT-PCR. *p<0.05. […]",
  "data": [
    {"molecule": "M-CSF: M-CSF protein (ab56288, ABCAM), macrophage colony stimulating factor (protein, UniProt Q8JZQ0 33-566, looked up) Macrophage colony-stimulating …: EVSEHCSHMIGNGHLQILQQLIDSQMETACLIEYKFVDQEQLDDPVCYLKKAFVLVQVIIEETMRFKDNTPNANATERLQELSMKLNSCFIKDYKEQNEACVQTYKESPLRLLEKIKNFFNETKNFLEKDWNIFSKNCNDSFAKCSSRDVVTKPDCNCLYPKATPSSDLASASPHQPPAPSMAPLADLAWDDSQRTEGSSLLPSDLPLRIEDPGSAKQRPPRSTCQTLESTEQPNHEDPQPHPSAGAPIPGVEDIIESSMGTNWVLEEASGEASEGFLTQERKFSPSNPVGGSIQAETDRPWARSASSPFPKLTEDQQPTNITDTPLTEVNPMRPTGQTLNNTPEKTDGSSTLREDQQEPRSPHFATLNPQRVGNSATPYAKLLPPKSHSWGIVLPLGELEGKKSTRDRRSPAELKGGPASEGAARPVAQSTRDRRSPAELKGGPASEGAARPVARFNSIPLTDTGSSIQDPQTSAFVFWVLGIILVLLAVGGLLFYSWKRRSHRDPRTLDSSVGRPEGSSLAQDEDRQVELPV", "values": [
      {"measurement": "suppression of CD4+CD25- T cells proliferation", "result": "up to 93.5%"}
    ]}
  ]
}
